According to patent publication US20250189530A1 (STCUBE, published 2025):

Columns and labels:
[1] = biological target: T1, mouse BTN1A1 (mouse, UniProt Q62556 27-524, limits assumed); experiment: immunohistochemistry, 2 ug/mL
T1 construct: also called mBTN1A1
T1 sequence (looked up): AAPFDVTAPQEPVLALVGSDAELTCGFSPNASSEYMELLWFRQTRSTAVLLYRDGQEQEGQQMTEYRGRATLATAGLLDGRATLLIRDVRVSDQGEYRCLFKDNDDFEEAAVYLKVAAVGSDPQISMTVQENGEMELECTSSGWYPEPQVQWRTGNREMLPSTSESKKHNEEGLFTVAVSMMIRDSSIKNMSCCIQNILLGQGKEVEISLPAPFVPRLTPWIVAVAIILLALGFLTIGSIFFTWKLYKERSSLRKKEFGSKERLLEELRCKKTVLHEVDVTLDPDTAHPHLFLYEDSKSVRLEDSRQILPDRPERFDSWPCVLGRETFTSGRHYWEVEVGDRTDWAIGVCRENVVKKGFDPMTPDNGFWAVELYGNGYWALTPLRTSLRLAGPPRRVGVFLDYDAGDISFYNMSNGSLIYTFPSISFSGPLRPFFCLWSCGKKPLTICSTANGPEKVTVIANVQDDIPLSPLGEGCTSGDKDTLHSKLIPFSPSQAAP
Text: […]

[2] = biological target: T2, BTN1A1 peptide 4 Mutant 7 (R367A) (human); experiment: KD against BTN1A1-pep4- WT
T2 construct: The entry already carries the mutation; also called BTN1A1-pep4- Mutant 7
T2 peptide: EVEVGDATDWAIGVC

[3] = biological target: T3, BTN1A1 peptide 4 Mutant 5 (G365A) (human); experiment: KD against BTN1A1-pep4- WT
T3 construct: The entry already carries the mutation; also called BTN1A1-pep4- Mutant 5
T3 peptide: EVEVADRTDWAIGVC

[4] = biological target: T4, BTN1A1 Peptide 4 (human); experiment: KD against BTN1A1-pep4- WT
T4 construct: also called BTN1A1-pep4- WT; Pep4
T4 peptide: EVEVGDRTDWAIGVC

[5] = biological target: T5, BTN1A1 peptide 4 Mutant 6 (D366A) (human); experiment: KD against BTN1A1-pep4- WT
T5 construct: The entry already carries the mutation; also called BTN1A1-pep4- Mutant 6; mutant peptide #6
T5 peptide: EVEVGARTDWAIGVC

[6] = biological target: T6, BTN1A1 peptide 4 Mutant 10 (W370A) (human); experiment: KD against BTN1A1-pep4- WT
T6 construct: The entry already carries the mutation; also called BTN1A1-pep4- Mutant 10; mutant peptide #10
T6 peptide: EVEVGDRTDAAIGVC

[7] = biological target: T7, TRIM11 peptide; experiment: KD against BTN1A1-pep4- WT
T7 peptide: EVEVGDRTSWALGVC

[8] = biological target: T8, BTN1A1 peptide 4 Mutant 12 (I372A) (human); experiment: KD against BTN1A1-pep4- WT
T8 construct: The entry already carries the mutation; also called Mutant 12 (1372A); BTN1A1-pep4- Mutant 12
T8 peptide: EVEVGDRTDWAAGVC

[9] = biological target: T9, BTN1A1 peptide 4 Mutant 9 (D369A) (human); experiment: KD against BTN1A1-pep4- WT
T9 construct: The entry already carries the mutation; also called BTN1A1-pep4- Mutant 9
T9 peptide: EVEVGDRTAWAIGVC

[10] = biological target: T10, BTN1A1 peptide 4 Mutant 8 (T368A) (human); experiment: KD against BTN1A1-pep4- WT
T10 construct: The entry already carries the mutation; also called BTN1A1-pep4- Mutant 8
T10 peptide: EVEVGDRADWAIGVC

[11] = biological target: T11, BTN1A1 peptide 4 Mutant 11 (A371G) (human); experiment: KD against BTN1A1-pep4- WT
T11 construct: The entry already carries the mutation; also called BTN1A1-pep4- Mutant 11
T11 peptide: EVEVGDRTDWGIGVC

[12] = biological target: T12, denatured hBTN1A1 ICD (human, UniProt Q13410 270-526); experiment: ELISA clone screen, STCube
T12 construct: Same protein as hBTN1A1 ICD, denatured before the ELISA; also called hBTN1A1 ICD denatured; Denatured ICD
T12 sequence: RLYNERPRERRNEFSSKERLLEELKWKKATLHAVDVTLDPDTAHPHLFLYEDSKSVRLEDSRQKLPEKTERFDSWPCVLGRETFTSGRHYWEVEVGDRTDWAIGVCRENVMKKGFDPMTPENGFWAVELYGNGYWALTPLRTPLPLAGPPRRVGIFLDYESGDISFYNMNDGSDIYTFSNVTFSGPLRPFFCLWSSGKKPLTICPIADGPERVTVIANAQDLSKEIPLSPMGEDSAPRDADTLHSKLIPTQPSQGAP

[13] = biological target: T4, BTN1A1 Peptide 4; experiment: ELISA clone screen, STCube
[14] = biological target: T13, hBTN1A1 ICD (human, UniProt Q13410 270-526); experiment: ELISA clone screen, STCube
T13 sequence: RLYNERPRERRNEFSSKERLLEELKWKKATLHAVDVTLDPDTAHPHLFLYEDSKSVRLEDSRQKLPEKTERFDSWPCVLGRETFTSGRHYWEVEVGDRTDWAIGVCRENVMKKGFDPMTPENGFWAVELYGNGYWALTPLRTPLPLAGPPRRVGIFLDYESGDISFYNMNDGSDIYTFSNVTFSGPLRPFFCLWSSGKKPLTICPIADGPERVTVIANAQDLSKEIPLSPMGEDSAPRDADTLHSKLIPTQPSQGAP

B1: STC43H11-1 (antibody, V domains shown)
VH: QSLEESGGRLVTPGGSLTLTCTVSGIDLSSYAMGWVRQAPGEGLEWIGSIGTGGGTGYASWAKGRFTISKTSTTVDLKMTSLTASDTATYFCATSNLWGPGTLVTVSS
VL: QVLTQTASPVSAAVGGTVTINCQASQSVYNNNRCSWFQQKPGQPPKRLIYHTSTLDSGVPSRFKGSGSGTQFTLTISDVQCDDAATYYCLGNYDCSRADCAAFGGGTEVVVK
notes: From immunized New Zealand rabbits; IgG heavy chain and Kappa light chain; also called clone #43H11; Clone 43H11
[1]
  binding result: binds
[2]
  Fold change: 4 fold
[3]
  Fold change: 20 fold
[4]
  Fold change: 1 fold
[5]
  Fold change: 160 fold
[6]
  Fold change: 59 fold
[7]
  Fold change: 7360 fold
[8]
  Fold change: 126 fold
[9]
  Fold change: 463 fold
[10]
  Fold change: 21 fold
[11]
  Fold change: 16 fold
[12]
  ELISA signal: 0.111
[13]
  ELISA signal: 0.945
[14]
  ELISA signal: 1.98
